# According to the Immune Epitope Database (IEDB):
# Key:
# HLA-A*30:02 = test: IEDB peptide-MHC binding, purified MHC/competitive/radioactivity; filed as Kd, often an IC50 or EC50 that approximates it; ≥ and ≤ were set here for values at or beyond the usual limits of such assays
# HLA-A*32:01 = test: as above
# HLA-A*29:02 = test: as above
# HLA-A*30:01 = test: as above
# HLA-A*01:01 = test: as above
# HLA-A*26:01 [1] = test: as above
# HLA-B*48:01 = test: IEDB peptide-MHC binding, purified MHC/direct/fluorescence; filed as Kd, often an IC50 or EC50 that approximates it; ≥ and ≤ were set here for values at or beyond the usual limits of such assays; details: source organism: Giardia lamblia ATCC 50803
# HLA-A*02:02 = test: IEDB peptide-MHC binding, purified MHC/competitive/radioactivity; filed as Kd, often an IC50 or EC50 that approximates it; ≥ and ≤ were set here for values at or beyond the usual limits of such assays; details: source organism: Lassa virus Josiah
# HLA-A*68:02 = test: as above; details: source organism: Lassa virus Josiah
# HLA-A*02:06 = test: as above; details: source organism: Lassa virus Josiah
# HLA-A*02:01 [2] = test: as above; details: source organism: Lassa virus Josiah
# HLA-A*02:03 = test: as above; details: source organism: Lassa virus Josiah
# HLA-B*15:01 [3] = test: as above
# HLA-B*15:01 [4] = test: IEDB peptide-MHC binding, purified MHC/competitive/fluorescence; filed as Kd, often an IC50 or EC50 that approximates it; ≥ and ≤ were set here for values at or beyond the usual limits of such assays
# HLA-B*35:01 = test: IEDB peptide-MHC binding, purified MHC/competitive/radioactivity; filed as Kd, often an IC50 or EC50 that approximates it; ≥ and ≤ were set here for values at or beyond the usual limits of such assays; details: source organism: Dengue virus 4 Philippines/H241/1956
# HLA-B*53:01 = test: as above; details: source organism: Dengue virus 4 Philippines/H241/1956
# HLA-A*26:01 [5] = test: IEDB peptide-MHC binding, purified MHC/direct/fluorescence; filed as Kd, often an IC50 or EC50 that approximates it; ≥ and ≤ were set here for values at or beyond the usual limits of such assays; details: source organism: Mycobacterium tuberculosis
# HLA-A*24:02 = test: IEDB peptide-MHC binding, purified MHC/competitive/radioactivity; filed as Kd, often an IC50 or EC50 that approximates it; ≥ and ≤ were set here for values at or beyond the usual limits of such assays; details: source organism: Mammarenavirus juninense
# HLA-A*23:01 = test: as above; details: source organism: Mammarenavirus juninense
# HLA-A*02:01 [6] = test: IEDB peptide-MHC binding, purified MHC/competitive/fluorescence; filed as Kd, often an IC50 or EC50 that approximates it; ≥ and ≤ were set here for values at or beyond the usual limits of such assays; details: source organism: Salmonella enterica subsp. enterica serovar Typhi
# HLA-B*07:02 = test: IEDB peptide-MHC binding, purified MHC/competitive/radioactivity; filed as Kd, often an IC50 or EC50 that approximates it; ≥ and ≤ were set here for values at or beyond the usual limits of such assays; details: source organism: Dengue virus 4 Philippines/H241/1956
# [7] = source organism: Lymphocytic choriomeningitis virus (strain Armstrong)
# [8] = source organism: Vaccinia virus WR
# [9] = source organism: Mammarenavirus juninense
sequence,measurement,setting,value
KTGESSRCY,Kd,HLA-A*30:02; [7],101 nM
same,Kd,HLA-A*32:01; [7],≥ 77800 nM
same,Kd,HLA-A*29:02; [7],4380 nM
same,Kd,HLA-A*30:01; [7],3520 nM
same,Kd,HLA-A*01:01; [7],7280 nM
same,Kd,HLA-A*26:01 [1]; [7],≥ 77900 nM
GMNEVTKAL,Kd,HLA-B*48:01,359 nM
RLLGTFTWT,Kd,HLA-A*02:02,323 nM
same,Kd,HLA-A*68:02,≥ 5000 nM
same,Kd,HLA-A*02:06,137 nM
same,Kd,HLA-A*02:01 [2],33.8 nM
same,Kd,HLA-A*02:03,104 nM
MLRVYNNTA,Kd,HLA-B*15:01 [3]; [8],188 nM
VLNGAPYSY,Kd,HLA-B*15:01 [4]; source organism: Bacillus anthracis str. A0488,53.6 nM
LAMTDTTPF,Kd,HLA-B*35:01,1.67 nM
same,Kd,HLA-B*15:01 [3]; source organism: Dengue virus 4 Philippines/H241/1956,3.92 nM
same,Kd,HLA-B*53:01,94.3 nM
FAISYCRAF,Kd,HLA-B*15:01 [3]; [8],76.1 nM
LQIFSNSVG,Kd,HLA-B*15:01 [3]; [8],2.07 nM
NTARLMAGA,Kd,HLA-A*26:01 [5],≥ 20000 nM
EDAMPGVLSY,Kd,HLA-A*30:02; [9],15500 nM
same,Kd,HLA-A*24:02,≥ 46400 nM
same,Kd,HLA-A*32:01; [9],≥ 69900 nM
same,Kd,HLA-A*29:02; [9],11100 nM
same,Kd,HLA-A*30:01; [9],≥ 70400 nM
same,Kd,HLA-A*01:01; [9],10600 nM
same,Kd,HLA-A*23:01,16400 nM
same,Kd,HLA-A*26:01 [1]; [9],1810 nM
KQSSFLSSL,Kd,HLA-B*15:01 [4]; source organism: Salmonella enterica subsp. enterica serovar Typhi,94.1 nM
same,Kd,HLA-A*02:01 [6],38.1 nM
APSTGSASSM,Kd,HLA-B*35:01,377 nM
same,Kd,HLA-B*07:02,19.3 nM
